Reference: FireProtDB (doi:10.1021/bi00021a023)

Conditions: Saccharomyces cerevisiae (strain ATCC 204508 / S288c), DSC, reversible: yes; for ddG of mutation (higher = less stable) / denaturant m value / denaturant midpoint (higher = more stable) / unfolding free energy: pH 7, 22 °C, GdnHCl, Potassium phosphate 0.1 M; for Tm / unfolding enthalpy (calorimetric) / change of melting temperature, mutant - wild type (higher = more stable): pH 4.6, Thermal, Potassium acetate 0.1 M

Sequence of Cytochrome c isoform 1 G12S|N58I, P00044 G12S N58I (P00044 whole entry G12S/N58I, canonical isoform): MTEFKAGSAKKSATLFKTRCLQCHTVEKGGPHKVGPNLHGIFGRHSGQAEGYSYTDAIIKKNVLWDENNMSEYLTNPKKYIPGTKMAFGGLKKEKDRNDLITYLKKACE
Sequence of Cytochrome c isoform 1 G12A|N58I, P00044 G12A N58I (P00044 whole entry G12A/N58I, canonical isoform): as the sequence (P00044 whole entry G12S/N58I, canonical isoform) above, with S12A counted along it
Sequence of Cytochrome c isoform 1 wild type, P00044 (P00044 whole entry, canonical isoform): as the sequence (P00044 whole entry G12S/N58I, canonical isoform) above, with S12G, I58N counted along it
Sequence of Cytochrome c isoform 1 N58I, P00044 (P00044 whole entry N58I, canonical isoform): as the sequence (P00044 whole entry G12S/N58I, canonical isoform) above, with S12G counted along it
Sequence of Cytochrome c isoform 1 G12A, P00044 (P00044 whole entry G12A, canonical isoform): as the sequence (P00044 whole entry G12S/N58I, canonical isoform) above, with S12A, I58N counted along it

Substance	ddG of mutation (higher = less stable) (structure 1YCC)	denaturant m value (structure 1YCC)	denaturant midpoint (higher = more stable) (structure 1YCC)	unfolding free energy (structure 1YCC)	Tm (structure 1YCC)	change of melting temperature, mutant - wild type (higher = more stable) (structure 1YCC)	unfolding enthalpy (calorimetric) (structure 1YCC)	also measured
Cytochrome c isoform 1 G12A, P00044	3.5 kcal/mol	5.4 kcal/mol/M	0.44 M	2.36 kcal/mol				
Cytochrome c isoform 1 wild type, P00044								Tm: 49.2 °C; unfolding enthalpy (calorimetric): 78.8 kcal/mol; denaturant m value: 4.36 kcal/mol/M; denaturant midpoint (higher = more stable): 1.34 M; unfolding free energy: 5.86 kcal/mol
Cytochrome c isoform 1 G12S|N58I, P00044 G12S N58I	0.31 kcal/mol	4.75 kcal/mol/M	1.17 M	5.55 kcal/mol				
Cytochrome c isoform 1 N58I, P00044					62.2 °C	13 °C	101 kcal/mol	
Cytochrome c isoform 1 G12A|N58I, P00044 G12A N58I					47.4 °C	-1.8 °C	64.7 kcal/mol	
